The nanobody polyreactivity screen of Harvey et al. (2022)

assay: yeast display, Sf9 membrane polyspecificity reagent, FACS + sequencing; frameworks hold sequencing errors
Procedure, shortened: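 After 36–48 hours of galactose induction, yeast (Saccharomyces cerevisiae BJ5465) displaying a synthetic nanobody library were stained at 4 °C for 1 hour with 10% biotinylated, detergent-solubilized Sf9 membrane reagent. Streptavidin microbeads enriched the stained cells before FACS sorting into low and high (top ~1%) gates on anti-HA and streptavidin fluorescence. Each clone's polyreactivity label reflects its gate of origin.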

| Sequence | polyreactivity (PSR sort gate) |
| --- | --- |
| QVQLVESGGGLVQAGGSLRLSCAASGSIFVGTAMGWYRQAPGKERELVADINSGGSTNYADSVKGRVTISRDNAKNTVYLQMNSLKPEDTAVSYCAKSAVSGTYDYWGQGTQVTVSS | low polyreactivity |
| QVQLVESGGGLVQAGGSLRLSCAASGRIFSRYTMGWYRQAPGKERELVAAISYRGGSTYYADSVKGRFTISRDNAKNTVYLQMNSLKPEDTAVYYCAARVQAIYRYDYWGQGTQVTVSS | high polyreactivity |
| QVQLVESGGGLVQAGGSLRLSCDAYGSIFRLYAMGWFRQAPGKEREFVAAIDKRGGRTHYADSVKGRFTISRDNAKNTVYLQITSLKPEDTAVYYCAAKAYVVTNGHGKLDYWGQGPQVTVSS | high polyreactivity |
| QVQLVESGGGLVQAGGSLRLTCAASGLIFARNAMGWYRQAPGKDRELVAAISSSGNTYADSVKGRFTISRDNAKNTVYLHMNSLKPEDTAVYYCNAVRRIRVTSTYDYWGQGTQVTVSS | high polyreactivity |
| QVQLVETGGGLVQAGGSLRLSCAASGSIFVYYAMGWYRQAPGKERELVAAISSRGGRTYYADSVKGRFTISRDNAKHTVYLQMNSLIPEDTAVYYCAASPDYSRYWVYAPNRRLGYWGQGTQVTVSS | high polyreactivity |
| QGQLVESGGGLVQAGGSIRLSCAAYGSTFNVNAMGLYRQAPGKERELVAAISRSCVSTYYADSVKWRFTISRDNAKNTVYLQMNSLKPEDTAVYYCNAYPGNWRGYRMDYWGQGNQVTVSS | high polyreactivity |
| QVQLVESGGGLVQAGGSRRLSCAASGFTFSQYTRGWYRQAPGKERELVAAISSGSSTYYADSVKGRFTISRDNAKNTVYLQMNSLKPEDTAVYYCAARVGWYTWGYYWGQGTQVTVSS | high polyreactivity |
| QVQLVESGGGLVQAGGSLRLSCAASGFTFVPYAMGWYRPAPGKEREFVAAITSSGTTNYADSVKGRFTISRDNAKNTVYLQMNSLKPEDTAVYYCAADPDSGQVPFDYWGQGTQVTVSS | low polyreactivity |
| QVQLVESGGGLVQAGGSLRLSCAASGFIFIEYTMGWYRQAPGKERQLVAAISSGGNTYYADSVKGRFTISRDNAKNTVYLQMNSLKPEDTAVYYCNADNYAFYTQRPLDGSATYDYWGQGTQVTVSS | low polyreactivity |
| QVQLVESGGGLVQAGGSLRLSCAASGRILYPYAMGWYRQAPGKERELVASISWSGGRTYYADSVKGRFTISRDHAKYTVYLQMNSLKPEDTAVYYCAATFSYSSYIYDYWGQGTQVTVSS | high polyreactivity |
| QVQLVESGGGLVQAGGSLRLSCAASGLTFRYYAMGWYRQAPGKERELVATITRAGRTNYADSVKGRFTISRDNAKNTVYLQMNSLKPEDTAVYYCATKRVLTGYDSWGQGTQVTVSS | high polyreactivity |
| QVQLVESGGGLVQAGGSLRLSCAASGSIFLGYVMGWSRQAPGKERELVAAITNSGGSTYYADSVKGRFTISRDNAKNTVYLQINSLKPEDTAVYYCAADSITSKNQGLDYDYWGQGTQVTVSS | low polyreactivity |
| QVQLVESGGGLVQAGGSLRLSCAAYGGTFPAYTMGWYRQAPGKERELVAAITWSGGNTYYADSVKGRFTISRDNAKNTVYLQMNSLKPQDTAVYYCAAEYWQYQWSVRIDYEYWGQGTQVNVSS | high polyreactivity |
| QVQLVESGGGLVQAGGSLRVSCAASGRTFRPNAMGWYRQAPGKERELVAAISGGGGSTYYADSVKGRFTISRDIAKNTVYLLMNSLKPEVTAVYYCNKVEQGRYGYWGQGTQVTVSS | high polyreactivity |
| QVQLVESGGGLVQAGGSLRLSCAASGRTFQSNAMGWYRQAPGKERELVAAITNGGNTNYADSVKGRFTISRDNAKNTVYLQMNSLKPEDTAVYYCAADRLYVRYGYWGQGTQVTVSS | low polyreactivity |
| QVQLVESGGGLVQAGGSLRLSCAASGRTFYKNAMGWYRQAPGKERELVATITSGGSTNYADSVKGRFTISRDNAKNTVYLQMNSLKPEDTAVYYCAAAKPVQFRIAQAHVGYWGQGTQVTVSS | low polyreactivity |
| QVQLVESGGGLVKAGGSLRLSCAASGRIFNYYAMGWYRQAPGKERELVAAISSVGSTNYADSVTGRFTISRDNAKNTVYLQMISLKPEDTAVYYCAAPYQHYDVNYDSWGQGTQVTVSS | low polyreactivity |
| QVQLEESGGGLVQAGGSLRLSCAASGRIFGYYAMGWYRQAPGKERELVATITFGGGSTYYADSVKGRFTISRDNAKNTVYLQMNSLKPEDTAVYYCAADSGYLGIYGDEYSWGQGTQVTVSS | low polyreactivity |
| QVQLVESGGGLVQAGGSLRLSCAASGLIFGGYAMGWYRQAPGKERELVAAISSSGGRTYYADSVKGRFTISRDNAKNTVYLQMNSLKPEDTAVYYCATRVHYRNDYWGQGTQVTVSS | high polyreactivity |
| QVQLVESGGGLVQAGGSLRLICAASGRTFENYAMGWYRQAPGKERELVAAISKSGGSTYYADSVKGRFTISRDNAKNPVYLQMNSLKPEDTAVYYCNARPGQSGARFGYWGQGTQVTVSS | high polyreactivity |
| QVQLVESGGGLVQAGGSLRLSCAAFGSIFGYNAMGSYRQAPGKEREFVAAISWSGGRTYYADSVKGRFTISRDNAKNTVYLQMNSLKPEDTAVYYCAAPSRPAPRFDYWGQGTQVTVSS | low polyreactivity |
| QVQLVESGGGLVQAGGSLRLSCAASGRTSEIYTMGWYRPAPGKERELVASINTNYADSVKGGFTNSRDNAKNTVYLQMNCLKPEDTAVYYCNADDTIEFNYWGQGTQVTVSW | low polyreactivity |

| Sequence | polyreactivity (PSR sort gate) |
| --- | --- |
| QVQLVESGGGLVQAGGSLRLSCAASGRTFYYYYTMGWYRQAPGKERELVAAISRSGSTNYADSVKGRFTISRDNAKNSVYLQMNSLKPEDTAVYYCAKETNRVGRYQWGQGTQVTVSS | low polyreactivity |
| QVQLVESGGRLVQAGGSLRLSCAASGFTFRYYAMGWYRQAPGKERELVAAITWSGGRTYYADSVKGRFTISRDNAKNTVFLQMNSLKPEDTAVYSSNTPSLWYGEDYWGHGTQVTVSS | high polyreactivity |
| QVQLVESGGGLVQAGGSLRLSCAASGFIFRPNAMGWYRQAPGKERELVAAITGRSGSTNYADSVKGRFTISRDNAKNTVYLQMNSLKPEDTAVYYCAARVWQGYYPGYYYWGQGTQVTVSS | high polyreactivity |
| QVQLVESGGGLVQAGGSLRLSCAASGSISSQNAMVSYRQAPGKERELVAAISWIGGSTYYADSVKGRFTISRDFAKNTVYLQMNSLKPEDTAVYYCAKDRARGFKYYYWGQGTQVTVSS | low polyreactivity |
| QVQLVESGGGLVQAGGSLRLSCAASGSTGVYAMGWYRQAPGKERELVADITSGGNTDYADSVKGRFTISRDNAKNTVYLQMTSLKPEDTAVYYCAADDYYVLDYFWFIEYGYWGQGTQVTVSS | high polyreactivity |
| QVQLVESGGGLVQAGGSLRLSCAASGRIFKWYAMGWYRQAPGKERELVAAISRSGGTTYYADSVKGRFTISSDNAKNTDYLQMNSLKPEDTAVYYCATRNIYFSTVDYWGQGTQVTVSS | high polyreactivity |
| QVQLVESGGGLVQGGGSLRLSCAASGFIFDDNSMGWYRQAPGKERELVAAITSGGGSTYYADSVKGRFTISRDNAKNTVYLQMNSLKPEDTAVYYCNAVPSQHDEFDYWGQGTQVTVSS | low polyreactivity |
| QVQHVESGGGLVQAGGSLRLSCAASGFIFTAYAMGWYRQAPGKERELVAGIRSGSSTYYADSVKGRFTISRDNAMNTVYLQMNSLKPEDTAVYYCNAEKYNFIYAYEYWGQGTQVTVSS | low polyreactivity |
| QDQLVESGGGLVQAGGSLRLSCAASGRTFPRNGMGWYRQAPGKERELVAAISWSGGRTYYADSVKGRFTISRDNAKNTVYLQMNSLKPEDTAVYYCNALYFRKGGYWGQGTQVTVSS | high polyreactivity |
| QVQLVESGGGLVQAGGSLRLSCAASGSISRVYAMGWYRAAPGKERELVASISRSGGSTYYADSVKGRFTISRDNAKNTVYLQRNSLKPEDTAVYYCAKASKGQYRFDYWGQGTQVTVSS | low polyreactivity |
| QVQLVESGGGLDQARGSLRLSCAASGRTFVLNAMGWYRQAPGKERELVAAITLGGGSTYADSVKGRFTISRANAKNTVYLQMNSLKPEDTAVYYCAADFHYPYFEYWGQGTQVTVSS | low polyreactivity |
| QDQLVESGGGLVQAGGSLRLSCAASGRTFVKYAMGWYRQAPGKERELVAAISRRGGSTYYADSVKGRFTISRDNAKNTVYLQMNSLKPEDTAVYYCAVSIGRYPYRYGYWGQGTQVTVSS | high polyreactivity |
| QVQLVESGGGLVQAGGSLRLSCAASGRTFFHYAMGWYRQAPGKERELVAAISYRGTSTYYADSVKGRFTISRDNAKNTVYLQMISLKPEDTAVYYCNAYSTRCGWSYRGDSWGQGTQVTVSS | high polyreactivity |
| QVLLVESGGCLVQAGGSVRLSCAASGSTFAPYVMGWYTQAPGKERELVADISTSGSTYYADSVKGRFTISRDNAKNTVYLQMNSMKPEDTAVYYCAAEDQRWFWTYDCWGQGTQVTVSS | high polyreactivity |
| QVQLVESGVGLVQAGGSLRLSCAASGSNSGLYAMGWYRQAPGKERELVAAIRWSGGSTRYADSVKGRFTISRDNAKNTVYLLMNSLKPEDTAVYYCAADFYSKFVRFGYWGQGTQVTVSS | high polyreactivity |
| QVQLVESGGGLVQAGGSLRLSCAASGSIFQKNAMGWYRQAPGKERELVATIRWSGGRTYYADSVKGRFTISRDNAKNTVYLQMNSLKPEDTAVYYCNAGYKGDYDYWGQGTQVTVSS | high polyreactivity |
| QVQLVESGGGLVQAGGSLRLSCAASGRIFPFYAMGWYRQAPGKETELVAVINASGGGTYYADSVKGRFTISRDNAKNTVYLQMNSLKPEDTAVYYCAATYSPFDFYYWGQGTQVTVSS | low polyreactivity |
| QVQLVESGGGLVQAGGSLRLSCAASGRTFYIYVMGWYRQAPGKERELVAGITWRGGITYYADSVKGRFTISRDNAKNNVYLQMNSLKPEDTAVYYCAVDDLGSEYDYWGQGTQVTVSS | low polyreactivity |
| QVQLVESGGRLVQAGGSLRLSCAASGSTFGSYTMGWYRQAPGKERELVAAINWSGGNTYYADSVKGRFTISRDYAKNTVYLQMNSLKPEDTAVYFCAAAYYIYGFEGDYWGHGTQVTVSS | low polyreactivity |
| QVQLVESGGGLVQAGGSLRLSCAASGRIFQYYTIGWYRQATGKERELVAAIRSSGGITYYADSVKGRFTISRDNAKYTVYLQMNSLKPEDTAVYYCAARWYRSKYDYWGQGTQVTVSS | high polyreactivity |
| QVQLVESGGGLVQAGGSLRLSCAASGRIFARNAMGSYRQAPGKERELVATIRVGGGSTYYADSVKGRFTISRDNAKNTVYLQMNSLKPEDTAVYYCAVRQLYSYPGDRRGYYWGQGTQVTVSS | low polyreactivity |
